Source: the RNAGym collection of RNA variant scans (doi:10.1073/pnas.2313332121)

B1: TPR t1 (parent)
chain: GACCAAUCUGCCCUCAGAGCUCGAGAACAUCUUCGGAUGCAGAGGAGGCAGGCUUCGGUGGCGCGAUAGCGCCAACGUCCUCAACCUCCAAUGCAUCCCACCACAUGAUGAUGCCUGAAGAGCCUUGGUUUUUUG

Variants of: B1
Assay: polymerase ribozyme fitness, log enrichment relative to wild type (log ratio); higher = more active; in vitro selection for triplet polymerase activity
Method in brief: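 To select mutant libraries of each subunit of a heterodimeric triplet polymerase ribozyme, built by PCR and transcribed, each was annealed with a biotinylated primer, partner subunit and triplets, then incubated frozen at −7 °C. Extended constructs were gel-excised, captured on streptavidin beads and amplified by RT-PCR, in one round carried out in triplicate. Illumina sequencing of input and output libraries kept genotypes with ≥10 input reads and ≥1 read per output. Fitness is the base-2 logarithm of genotype enrichment relative to wild-type enrichment, from inverse-variance-weighted replicate averages.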

Going from C8U U38G C72A U92A C115G to C8U U9C C12U G71U U132A, the “polymerase ribozyme fitness (log ratio)” value rises from -5.69 to 0.729.

Going from C8U G39U C49G G63C U78A G128A to U9A C73U C123G U134C, the “polymerase ribozyme fitness (log ratio)” value rises from -4.09 to 2.44.

Going from C8U G63U C102G C114A U125A to U9A G19C C85A U112A, the “polymerase ribozyme fitness (log ratio)” value rises from -6.46 to -0.364.

First: U9C G17U U54C C79A C98U C101A
Second: U9C A26U G57C A84U
The “polymerase ribozyme fitness (log ratio)” value of the first is lower: -5.9 for the first, -3.11 for the second.

Compared with U9A G44C U55C U109G, U9C A26G C72G C79U is higher in “polymerase ribozyme fitness (log ratio)” value: -4.29 for the first, -0.65 for the second.

First: C8U U96A C123G
Second: U9A G39U G48A U109A
The “polymerase ribozyme fitness (log ratio)” value of the first is higher: 1.65 for the first, -6.15 for the second.

Compared with U9A G117C, U9A G117A is higher in “polymerase ribozyme fitness (log ratio)” value: -1.79 for the first, 1.04 for the second.

Compared with C8U G51A A121C U131G, C8U G77A A84C A91C C98U is lower in “polymerase ribozyme fitness (log ratio)” value: -0.214 for the first, -2.47 for the second.

Going from U9A U14G A41C G42U G60U G93U A121C to C8U U112A, the “polymerase ribozyme fitness (log ratio)” value rises from 0.0286 to 1.33.

Compared with C8U G57A, U9A G44U C56U G122A is lower in “polymerase ribozyme fitness (log ratio)” value: -0.0154 for the first, -0.525 for the second.

Going from U9C C20G C101U G113U to U9A A46U G77C G122A, the “polymerase ribozyme fitness (log ratio)” value falls from -0.203 to -0.702.

Compared with U9A C11U C76U A84C, U9C C99U is lower in “polymerase ribozyme fitness (log ratio)” value: -0.377 for the first, -1.75 for the second.

Compared with C8U U38A C70U, U9C C12A is higher in “polymerase ribozyme fitness (log ratio)” value: -1.62 for the first, 0.347 for the second.

Going from C8U U21A C56U C114A G128A to C8U U14C A75U G120A, the “polymerase ribozyme fitness (log ratio)” value rises from -2.5 to 1.44.

Going from U9C G45C U131G to U9A G77U C123U, the “polymerase ribozyme fitness (log ratio)” value rises from -1.16 to 1.84.

Going from U9A C11G C15G A91C G93A to U9A C12A C124U, the “polymerase ribozyme fitness (log ratio)” value rises from -3.49 to 2.01.

Going from U9A G19C C40G A43U G60U to U9A A16U A43U A91G, the “polymerase ribozyme fitness (log ratio)” value rises from -3.06 to -0.987.

First: U9C A119U C123U
Second: U9A A46G C53G G113U
The “polymerase ribozyme fitness (log ratio)” value of the first is higher: 2.07 for the first, -1.54 for the second.

First: U9A A16G A18U A43G C70A C72U
Second: U9A C11U A66C G117U
The “polymerase ribozyme fitness (log ratio)” value of the first is higher: -3.21 for the first, -5.04 for the second.

Compared with U9C C62A A75G C94A G110A, C8U G19C G44U C56A C89G is higher in “polymerase ribozyme fitness (log ratio)” value: -4.36 for the first, -2.64 for the second.

Compared with U9A C49U, C8U G117C is lower in “polymerase ribozyme fitness (log ratio)” value: -0.088 for the first, -3.02 for the second.

Compared with C8U G117A, U9A C31U G44U G52U G61U A111U is lower in “polymerase ribozyme fitness (log ratio)” value: 0.294 for the first, -6.18 for the second.

First: U9C A27G G45A G57U C115G
Second: C8U G60C U129C
The “polymerase ribozyme fitness (log ratio)” value of the first is lower: -3.94 for the first, -0.854 for the second.

Going from U9A C40G G71U to C8U G47C G52A G113A, the “polymerase ribozyme fitness (log ratio)” value falls from -0.173 to -3.3.

Compared with U9A G19U C88A C114A, U9A C13U C62A C79G C94A U132A is lower in “polymerase ribozyme fitness (log ratio)” value: 1.72 for the first, -4.57 for the second.

Going from C8U U9G C12A G58A to U9A C31G, the “polymerase ribozyme fitness (log ratio)” value falls from 0.43 to -4.11.

Going from U9A C89G to U9A C62A C88U U92A, the “polymerase ribozyme fitness (log ratio)” value falls from -2.53 to -4.26.

Compared with U9C A50U G52C, U9A C70U C88A C101U U132A is higher in “polymerase ribozyme fitness (log ratio)” value: -2.28 for the first, -0.202 for the second.

C8U G61C U116A and U9A G10C U54A C86A G110U U125A are within 0.2 log units of each other in “polymerase ribozyme fitness (log ratio)” value: -3.22 for the first, -3.13 for the second.

Compared with U9A C15A C56G C70U C76U G120C G122U U129C, C8U G39A C94G C99U is higher in “polymerase ribozyme fitness (log ratio)” value: -6.98 for the first, -4.71 for the second.

First: C8U U59A G60C G117U U131C
Second: U9A C40G G42U
The “polymerase ribozyme fitness (log ratio)” value of the first is higher: -0.987 for the first, -1.9 for the second.

U9C C104U G122A and U9C A16U G63C are within 0.2 log units of each other in “polymerase ribozyme fitness (log ratio)” value: 0.29 for the first, 0.269 for the second.

Going from U9A G48U A50U G60A C86G to U9A U78A G93C C124G G128C, the “polymerase ribozyme fitness (log ratio)” value falls from -1.49 to -2.15.

Compared with U9A C114U G120A C123U, U9A A27G C114U is higher in “polymerase ribozyme fitness (log ratio)” value: -2.11 for the first, -1.28 for the second.

Compared with U9A C13A C22G G48C G71A, U9C A37U G110U is higher in “polymerase ribozyme fitness (log ratio)” value: -5.83 for the first, -0.951 for the second.

First: U9C C94A A100C G127C G135U
Second: U9A G110U G117A
The “polymerase ribozyme fitness (log ratio)” value of the first is lower: -3 for the first, -2.51 for the second.

First: U9C G44U G63A C89G U109A
Second: U9A C104A
The “polymerase ribozyme fitness (log ratio)” value of the first is lower: -7.22 for the first, -0.737 for the second.

First: U9C C12U G39U C70A A111U C124A
Second: U9C A41U C72U U78A G93C
The “polymerase ribozyme fitness (log ratio)” value of the first is lower: -5.75 for the first, -1.36 for the second.

Going from U9A G77U to C8U G93C G120A, the “polymerase ribozyme fitness (log ratio)” value rises from 1.05 to 1.29.

Compared with U9C C72A C76U G77U, U9A A50U C62G is lower in “polymerase ribozyme fitness (log ratio)” value: -2.24 for the first, -2.77 for the second.

Compared with C8U G52U G61C C73G U87C U130A, U9A G42A A43G G47U C56U is lower in “polymerase ribozyme fitness (log ratio)” value: -2.65 for the first, -3.28 for the second.

Compared with U9A G110U, U9A G48U C64U C72A is higher in “polymerase ribozyme fitness (log ratio)” value: -0.815 for the first, 0.0767 for the second.
